Target: Exotoxin A (Pseudomonas aeruginosa, UniProt P11439 26-638)
Experiment: SPR; […]; 0-2 uM analyte, 1:1 kinetic model; SPR (Biacore X100): 100 mM NaCl, 20 mM Tris-HCl, 2 mM MgCl2 (pH not stated), room temperature, 5 uL/min
Conditions: protein: commercial; tags: none stated

Exotoxin A, sequence (P11439 26-638): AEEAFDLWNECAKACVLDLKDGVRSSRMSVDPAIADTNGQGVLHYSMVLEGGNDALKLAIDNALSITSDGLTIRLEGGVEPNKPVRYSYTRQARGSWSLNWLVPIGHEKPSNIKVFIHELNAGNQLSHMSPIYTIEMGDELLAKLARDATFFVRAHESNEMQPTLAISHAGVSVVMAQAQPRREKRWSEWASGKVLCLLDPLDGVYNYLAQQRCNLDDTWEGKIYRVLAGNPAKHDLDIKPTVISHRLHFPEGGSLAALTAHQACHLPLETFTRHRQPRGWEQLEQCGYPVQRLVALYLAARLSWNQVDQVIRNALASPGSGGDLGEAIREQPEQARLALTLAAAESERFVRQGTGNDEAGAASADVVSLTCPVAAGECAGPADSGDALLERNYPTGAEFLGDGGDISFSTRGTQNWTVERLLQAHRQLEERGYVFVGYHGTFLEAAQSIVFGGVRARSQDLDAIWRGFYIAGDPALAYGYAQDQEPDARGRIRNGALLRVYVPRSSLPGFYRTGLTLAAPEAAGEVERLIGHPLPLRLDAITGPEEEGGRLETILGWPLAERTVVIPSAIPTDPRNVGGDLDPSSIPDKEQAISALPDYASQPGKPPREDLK

B1: R14.33 (ssDNA)
DNA: TGTACCGTCTGAGCGATTCGTACCATAGGGTGCTTTTCAAGGCCACACGTTAGTGTAAGCCAGTCAGTGTTAAGGAGTGC
modifications: 5' amino-C6
- Kd: 4.35 µM
